# Data taken from the Human Domainome abundance scans (Beltran et al. 2025).
# ± gives the uncertainty stated by the source.
# B1: COUP transcription factor 1, residues 83 to 159; numbered along this chain, P10589 (parent)
# chain: HIECVVCGDKSSGKHYGQFTCEGCKSFFKRSVRRNLTYTCRANRNCPIDQHHRNQCQYCRLKKCLKVGMRREAVQRG
# Variants of: B1
# Assay: abundance fitness (aPCA) (normalised: wild type 0, dead -1); higher = more abundant; growth selection in yeast, the domain comes from the species named
# Conditions: Homo sapiens
row,Variant,abundance fitness
1,HIECVVCGDKSSGKHYGQFTCEGCKSFFKRSVRRNLTYTCRANRNCPIDQCHRNQCQYCRLKKCLKVGMRREAVQRG [H51C],-0.118 ± 0.064
2,HIECVVCGDKSSGKHYGQFTCEGCKSFFKRSVRRNLTYTCRANRNCPIDQDHRNQCQYCRLKKCLKVGMRREAVQRG [H51D],-0.022 ± 0.065
3,HIECVVCGDKSSGKHYGQFTCEGCKSFFKRSVRRNLTYTCRANRNCPIDQEHRNQCQYCRLKKCLKVGMRREAVQRG [H51E],-0.041 ± 0.051
4,HIECVVCGDKSSGKHYGQFTCEGCKSFFKRSVRRNLTYTCRANRNCPIDQGHRNQCQYCRLKKCLKVGMRREAVQRG [H51G],0.034 ± 0.031
5,HIECVVCGDKSSGKHYGQFTCEGCKSFFKRSVRRNLTYTCRANRNCPIDQIHRNQCQYCRLKKCLKVGMRREAVQRG [H51I],-0.244 ± 0.13
6,HIECVVCGDKSSGKHYGQFTCEGCKSFFKRSVRRNLTYTCRANRNCPIDQKHRNQCQYCRLKKCLKVGMRREAVQRG [H51K],0.059 ± 0.064
7,HIECVVCGDKSSGKHYGQFTCEGCKSFFKRSVRRNLTYTCRANRNCPIDQLHRNQCQYCRLKKCLKVGMRREAVQRG [H51L],0.059 ± 0.044
8,HIECVVCGDKSSGKHYGQFTCEGCKSFFKRSVRRNLTYTCRANRNCPIDQMHRNQCQYCRLKKCLKVGMRREAVQRG [H51M],0.025 ± 0.066
9,HIECVVCGDKSSGKHYGQFTCEGCKSFFKRSVRRNLTYTCRANRNCPIDQNHRNQCQYCRLKKCLKVGMRREAVQRG [H51N],0.102 ± 0.13
10,HIECVVCGDKSSGKHYGQFTCEGCKSFFKRSVRRNLTYTCRANRNCPIDQPHRNQCQYCRLKKCLKVGMRREAVQRG [H51P],-0.138 ± 0.077
11,HIECVVCGDKSSGKHYGQFTCEGCKSFFKRSVRRNLTYTCRANRNCPIDQQHRNQCQYCRLKKCLKVGMRREAVQRG [H51Q],0.081 ± 0.066
12,HIECVVCGDKSSGKHYGQFTCEGCKSFFKRSVRRNLTYTCRANRNCPIDQRHRNQCQYCRLKKCLKVGMRREAVQRG [H51R],-0.16 ± 0.039
13,HIECVVCGDKSSGKHYGQFTCEGCKSFFKRSVRRNLTYTCRANRNCPIDQTHRNQCQYCRLKKCLKVGMRREAVQRG [H51T],-0.091 ± 0.063
14,HIECVVCGDKSSGKHYGQFTCEGCKSFFKRSVRRNLTYTCRANRNCPIDQVHRNQCQYCRLKKCLKVGMRREAVQRG [H51V],-0.051 ± 0.041
15,HIECVVCGDKSSGKHYGQFTCEGCKSFFKRSVRRNLTYTCRANRNCPIDQWHRNQCQYCRLKKCLKVGMRREAVQRG [H51W],0.012 ± 0.048
16,HIECVVCGDKSSGKHYGQFTCEGCKSFFKRSVRRNLTYTCRANRNCPIDQYHRNQCQYCRLKKCLKVGMRREAVQRG [H51Y],-0.09 ± 0.096
17,HIECVVCGDKSSGKHYGQFTCEGCKSFFKRSVRRNLTYTCRANRNCPIDQHARNQCQYCRLKKCLKVGMRREAVQRG [H52A],0.041 ± 0.041
18,HIECVVCGDKSSGKHYGQFTCEGCKSFFKRSVRRNLTYTCRANRNCPIDQHCRNQCQYCRLKKCLKVGMRREAVQRG [H52C],-0.092 ± 0.061
19,HIECVVCGDKSSGKHYGQFTCEGCKSFFKRSVRRNLTYTCRANRNCPIDQHDRNQCQYCRLKKCLKVGMRREAVQRG [H52D],-0.092 ± 0.053
20,HIECVVCGDKSSGKHYGQFTCEGCKSFFKRSVRRNLTYTCRANRNCPIDQHERNQCQYCRLKKCLKVGMRREAVQRG [H52E],0.08 ± 0.051
21,HIECVVCGDKSSGKHYGQFTCEGCKSFFKRSVRRNLTYTCRANRNCPIDQHFRNQCQYCRLKKCLKVGMRREAVQRG [H52F],-0.068 ± 0.062
22,HIECVVCGDKSSGKHYGQFTCEGCKSFFKRSVRRNLTYTCRANRNCPIDQHGRNQCQYCRLKKCLKVGMRREAVQRG [H52G],0.035 ± 0.043
23,HIECVVCGDKSSGKHYGQFTCEGCKSFFKRSVRRNLTYTCRANRNCPIDQHIRNQCQYCRLKKCLKVGMRREAVQRG [H52I],0.07 ± 0.047
24,HIECVVCGDKSSGKHYGQFTCEGCKSFFKRSVRRNLTYTCRANRNCPIDQHKRNQCQYCRLKKCLKVGMRREAVQRG [H52K],-0.035 ± 0.055

row,Variant,abundance fitness
1,HIECVVCGDKSSGKHYGQFTCEGCKSFFKRSVRRNLTYTCRANRNCPIDQHMRNQCQYCRLKKCLKVGMRREAVQRG [H52M],-0.019 ± 0.052
2,HIECVVCGDKSSGKHYGQFTCEGCKSFFKRSVRRNLTYTCRANRNCPIDQHNRNQCQYCRLKKCLKVGMRREAVQRG [H52N],-0.1 ± 0.055
3,HIECVVCGDKSSGKHYGQFTCEGCKSFFKRSVRRNLTYTCRANRNCPIDQHPRNQCQYCRLKKCLKVGMRREAVQRG [H52P],0.09 ± 0.043
4,HIECVVCGDKSSGKHYGQFTCEGCKSFFKRSVRRNLTYTCRANRNCPIDQHQRNQCQYCRLKKCLKVGMRREAVQRG [H52Q],0.095 ± 0.047
5,HIECVVCGDKSSGKHYGQFTCEGCKSFFKRSVRRNLTYTCRANRNCPIDQHRRNQCQYCRLKKCLKVGMRREAVQRG [H52R],-0.154 ± 0.042
6,HIECVVCGDKSSGKHYGQFTCEGCKSFFKRSVRRNLTYTCRANRNCPIDQHSRNQCQYCRLKKCLKVGMRREAVQRG [H52S],-0.102 ± 0.043
7,HIECVVCGDKSSGKHYGQFTCEGCKSFFKRSVRRNLTYTCRANRNCPIDQHVRNQCQYCRLKKCLKVGMRREAVQRG [H52V],0.023 ± 0.042
8,HIECVVCGDKSSGKHYGQFTCEGCKSFFKRSVRRNLTYTCRANRNCPIDQHWRNQCQYCRLKKCLKVGMRREAVQRG [H52W],-0.263 ± 0.075
9,HIECVVCGDKSSGKHYGQFTCEGCKSFFKRSVRRNLTYTCRANRNCPIDQHYRNQCQYCRLKKCLKVGMRREAVQRG [H52Y],-0.225 ± 0.067
10,HIECVVCGDKSSGKHYGQFTCEGCKSFFKRSVRRNLTYTCRANRNCPIDQHHANQCQYCRLKKCLKVGMRREAVQRG [R53A],0.022 ± 0.059
11,HIECVVCGDKSSGKHYGQFTCEGCKSFFKRSVRRNLTYTCRANRNCPIDQHHCNQCQYCRLKKCLKVGMRREAVQRG [R53C],-0.001 ± 0.11
12,HIECVVCGDKSSGKHYGQFTCEGCKSFFKRSVRRNLTYTCRANRNCPIDQHHDNQCQYCRLKKCLKVGMRREAVQRG [R53D],0.055 ± 0.093
13,HIECVVCGDKSSGKHYGQFTCEGCKSFFKRSVRRNLTYTCRANRNCPIDQHHENQCQYCRLKKCLKVGMRREAVQRG [R53E],0.018 ± 0.07
14,HIECVVCGDKSSGKHYGQFTCEGCKSFFKRSVRRNLTYTCRANRNCPIDQHHFNQCQYCRLKKCLKVGMRREAVQRG [R53F],-0.495 ± 0.28
15,HIECVVCGDKSSGKHYGQFTCEGCKSFFKRSVRRNLTYTCRANRNCPIDQHHHNQCQYCRLKKCLKVGMRREAVQRG [R53H],-0.231 ± 0.17
16,HIECVVCGDKSSGKHYGQFTCEGCKSFFKRSVRRNLTYTCRANRNCPIDQHHINQCQYCRLKKCLKVGMRREAVQRG [R53I],-0.169 ± 0.17
17,HIECVVCGDKSSGKHYGQFTCEGCKSFFKRSVRRNLTYTCRANRNCPIDQHHKNQCQYCRLKKCLKVGMRREAVQRG [R53K],-0.218 ± 0.14
18,HIECVVCGDKSSGKHYGQFTCEGCKSFFKRSVRRNLTYTCRANRNCPIDQHHLNQCQYCRLKKCLKVGMRREAVQRG [R53L],-0.081 ± 0.065
19,HIECVVCGDKSSGKHYGQFTCEGCKSFFKRSVRRNLTYTCRANRNCPIDQHHMNQCQYCRLKKCLKVGMRREAVQRG [R53M],-0.099 ± 0.11
20,HIECVVCGDKSSGKHYGQFTCEGCKSFFKRSVRRNLTYTCRANRNCPIDQHHNNQCQYCRLKKCLKVGMRREAVQRG [R53N],-0.044 ± 0.16
21,HIECVVCGDKSSGKHYGQFTCEGCKSFFKRSVRRNLTYTCRANRNCPIDQHHPNQCQYCRLKKCLKVGMRREAVQRG [R53P],0.111 ± 0.088
22,HIECVVCGDKSSGKHYGQFTCEGCKSFFKRSVRRNLTYTCRANRNCPIDQHHQNQCQYCRLKKCLKVGMRREAVQRG [R53Q],0.12 ± 0.21
23,HIECVVCGDKSSGKHYGQFTCEGCKSFFKRSVRRNLTYTCRANRNCPIDQHHSNQCQYCRLKKCLKVGMRREAVQRG [R53S],-0.178 ± 0.076
24,HIECVVCGDKSSGKHYGQFTCEGCKSFFKRSVRRNLTYTCRANRNCPIDQHHTNQCQYCRLKKCLKVGMRREAVQRG [R53T],0.017 ± 0.066

row,Variant,abundance fitness
1,HIECVVCGDKSSGKHYGQFTCEGCKSFFKRSVRRNLTYTCRANRNCPIDQHHVNQCQYCRLKKCLKVGMRREAVQRG [R53V],-0.069 ± 0.06
2,HIECVVCGDKSSGKHYGQFTCEGCKSFFKRSVRRNLTYTCRANRNCPIDQHHWNQCQYCRLKKCLKVGMRREAVQRG [R53W],-0.288 ± 0.11
3,HIECVVCGDKSSGKHYGQFTCEGCKSFFKRSVRRNLTYTCRANRNCPIDQHHYNQCQYCRLKKCLKVGMRREAVQRG [R53Y],0.224 ± 0.23
4,HIECVVCGDKSSGKHYGQFTCEGCKSFFKRSVRRNLTYTCRANRNCPIDQHHRCQCQYCRLKKCLKVGMRREAVQRG [N54C],-0.314 ± 0.11
5,HIECVVCGDKSSGKHYGQFTCEGCKSFFKRSVRRNLTYTCRANRNCPIDQHHRDQCQYCRLKKCLKVGMRREAVQRG [N54D],-0.071 ± 0.079
6,HIECVVCGDKSSGKHYGQFTCEGCKSFFKRSVRRNLTYTCRANRNCPIDQHHREQCQYCRLKKCLKVGMRREAVQRG [N54E],0.075 ± 0.053
7,HIECVVCGDKSSGKHYGQFTCEGCKSFFKRSVRRNLTYTCRANRNCPIDQHHRFQCQYCRLKKCLKVGMRREAVQRG [N54F],-0.222 ± 0.1
8,HIECVVCGDKSSGKHYGQFTCEGCKSFFKRSVRRNLTYTCRANRNCPIDQHHRGQCQYCRLKKCLKVGMRREAVQRG [N54G],-0.153 ± 0.039
9,HIECVVCGDKSSGKHYGQFTCEGCKSFFKRSVRRNLTYTCRANRNCPIDQHHRHQCQYCRLKKCLKVGMRREAVQRG [N54H],-0.116 ± 0.11
10,HIECVVCGDKSSGKHYGQFTCEGCKSFFKRSVRRNLTYTCRANRNCPIDQHHRIQCQYCRLKKCLKVGMRREAVQRG [N54I],0.092 ± 0.094
11,HIECVVCGDKSSGKHYGQFTCEGCKSFFKRSVRRNLTYTCRANRNCPIDQHHRKQCQYCRLKKCLKVGMRREAVQRG [N54K],-0.089 ± 0.082
12,HIECVVCGDKSSGKHYGQFTCEGCKSFFKRSVRRNLTYTCRANRNCPIDQHHRLQCQYCRLKKCLKVGMRREAVQRG [N54L],-0.029 ± 0.043
13,HIECVVCGDKSSGKHYGQFTCEGCKSFFKRSVRRNLTYTCRANRNCPIDQHHRMQCQYCRLKKCLKVGMRREAVQRG [N54M],0.015 ± 0.061
14,HIECVVCGDKSSGKHYGQFTCEGCKSFFKRSVRRNLTYTCRANRNCPIDQHHRPQCQYCRLKKCLKVGMRREAVQRG [N54P],0.006 ± 0.066
15,HIECVVCGDKSSGKHYGQFTCEGCKSFFKRSVRRNLTYTCRANRNCPIDQHHRQQCQYCRLKKCLKVGMRREAVQRG [N54Q],-0.091 ± 0.057
16,HIECVVCGDKSSGKHYGQFTCEGCKSFFKRSVRRNLTYTCRANRNCPIDQHHRRQCQYCRLKKCLKVGMRREAVQRG [N54R],-0.353 ± 0.045
17,HIECVVCGDKSSGKHYGQFTCEGCKSFFKRSVRRNLTYTCRANRNCPIDQHHRSQCQYCRLKKCLKVGMRREAVQRG [N54S],-0.033 ± 0.051
18,HIECVVCGDKSSGKHYGQFTCEGCKSFFKRSVRRNLTYTCRANRNCPIDQHHRTQCQYCRLKKCLKVGMRREAVQRG [N54T],-0.059 ± 0.059
19,HIECVVCGDKSSGKHYGQFTCEGCKSFFKRSVRRNLTYTCRANRNCPIDQHHRVQCQYCRLKKCLKVGMRREAVQRG [N54V],-0.025 ± 0.044
20,HIECVVCGDKSSGKHYGQFTCEGCKSFFKRSVRRNLTYTCRANRNCPIDQHHRWQCQYCRLKKCLKVGMRREAVQRG [N54W],-0.194 ± 0.053
21,HIECVVCGDKSSGKHYGQFTCEGCKSFFKRSVRRNLTYTCRANRNCPIDQHHRYQCQYCRLKKCLKVGMRREAVQRG [N54Y],-0.104 ± 0.088
22,HIECVVCGDKSSGKHYGQFTCEGCKSFFKRSVRRNLTYTCRANRNCPIDQHHRNACQYCRLKKCLKVGMRREAVQRG [Q55A],-0.02 ± 0.042
23,HIECVVCGDKSSGKHYGQFTCEGCKSFFKRSVRRNLTYTCRANRNCPIDQHHRNCCQYCRLKKCLKVGMRREAVQRG [Q55C],0.008 ± 0.056
